For assay [1], the target named is His-tagged V158 FcγRIIIa (human) (UniProt P08637). Put plainly: SPR, receptor immobilized. On the technique in general: In SPR one partner is held on a chip, and binding of the other changes the refractive index at the surface.
Assay [2] has as its target extracellular region of human V158 FcγRIIIa fused with glutathione S-Transferase (GST) (human) (UniProt P08637). The assay is described as follows: AlphaScreen competition.
For assay [3], the target named is FcγRIIIa on human PBMCs expressing heterozygous V158/F158 FcγRIIIa (human) (UniProt P08637). Put plainly: cell-based or functional assay.

extracellular region of human V158 FcγRIIIa fused with glutathione S-Transferase (GST) (human), sequence (P08637 17-208 F176V): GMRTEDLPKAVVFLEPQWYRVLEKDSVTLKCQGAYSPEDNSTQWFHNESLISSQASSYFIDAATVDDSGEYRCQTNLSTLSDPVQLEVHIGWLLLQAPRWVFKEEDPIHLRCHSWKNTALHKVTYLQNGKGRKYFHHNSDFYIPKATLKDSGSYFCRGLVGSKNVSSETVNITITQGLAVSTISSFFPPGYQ
His-tagged V158 FcγRIIIa (human), sequence (P08637 17-208 F176V limits assumed): as the sequence (P08637 17-208 F176V) above

For orientation: Kd means a measure of binding affinity in units of concentration. A high value points to weaker binding. The substance WT alemtuzumab (antibody) had an equilibrium dissociation constant (Kd) in assay [1] of 0.068 µM. This counts as double-digit nanomolar.

In assay [2], alemtuzumab A298H (antibody) displayed a FcγRIIIa Fold of 0.27 fold.

alemtuzumab I332E (antibody) showed a Kd in assay [1] of 0.031 µM. That is a double-digit nanomolar value. In the case of alemtuzumab S239D/I332E (antibody), the ADCC EC50 (DELFIA EuTDA, DoHH-2 target cells) in assay [3] is 3 ng/mL. Substance alemtuzumab S298A (antibody) had a Kd in assay [1] of 0.052 µM. This lies in the double-digit nanomolar range. Same read-out and setting: to “alemtuzumab S298A/E333A/K334A (antibody)” belongs 0.039 µM; to alemtuzumab V264I (antibody), 0.064 µM.

In turn, alemtuzumab V264I/I332E (antibody) came in with an ADCC EC50 (DELFIA EuTDA, DoHH-2 target cells) in assay [3] of 4 ng/mL. This substance also yielded an equilibrium dissociation constant (Kd) in assay [1] of 0.017 µM.

As for trastuzumab E233D (antibody), in assay [2], the FcγRIIIa Fold came to 0.85 fold.

Turning to trastuzumab E272Y (antibody), the FcγRIIIa Fold in assay [2] came out at 8.7 fold.

For trastuzumab E283R (antibody), the FcγRIIIa Fold in assay [2] is 0.67 fold. The same measure, in the same setting: then trastuzumab E318R (antibody), with 1.06 fold. Same read-out and setting: to trastuzumab E333H (antibody) belongs 0.75 fold. The substance trastuzumab E333T (antibody) registered a FcγRIIIa Fold in assay [2] of 0.78 fold. Same read-out and setting: to trastuzumab F275W (antibody) belongs 1.11 fold; to trastuzumab K274E (antibody), 6.11 fold; to trastuzumab K274L (antibody), 1.09 fold. In turn, trastuzumab K274R (antibody) gave a FcγRIIIa Fold in assay [2] of 1.41 fold. Still for that read-out and setting: to trastuzumab K274T (antibody) belongs 1.41 fold; to trastuzumab K274Y (antibody), 1.06 fold; to trastuzumab K326I (antibody), 1.43 fold. Still for that read-out and setting: then trastuzumab K326T (antibody), with 1.88 fold; and trastuzumab L234I/L235D (antibody), with 0.07 fold; and trastuzumab N276E (antibody), with 0.87 fold. trastuzumab N276R (antibody): the FcγRIIIa Fold in assay [2] came out at 0.66 fold. On the same count and under the same terms, to trastuzumab N276S (antibody) belongs 0.41 fold; to trastuzumab N276Y (antibody), 0.56 fold. For the substance trastuzumab P230A (antibody), in assay [2], the FcγRIIIa Fold was 1.09 fold. Still for that read-out and setting: to trastuzumab P230A/E233D (antibody) belongs 0.92 fold; to “trastuzumab P230A/E233D/I332E (antibody)”, 1.87 fold; to “trastuzumab S239D/A330Y/I332E/K326E (antibody)”, 64.1 fold. “trastuzumab S239D/A330Y/I332E/L234I (antibody)” had a FcγRIIIa Fold in assay [2] of 22.4 fold. As for “trastuzumab S239D/A330Y/I332E/L235D (antibody)”, the FcγRIIIa Fold in assay [2] turned out to be 7.04 fold. “trastuzumab S239D/A330Y/I332E/V240I (antibody)”: the FcγRIIIa Fold in assay [2] worked out at 28 fold. Same read-out and setting: then “trastuzumab S239D/A330Y/I332E/V264T (antibody)”, with 17.7 fold; and “trastuzumab S239D/I332E/A330I (antibody)”, with 59.1 fold; and trastuzumab S324R (antibody), with 0.71 fold. For the substance trastuzumab S324V (antibody), the FcγRIIIa Fold in assay [2] worked out at 1.17 fold. For the substance trastuzumab S324Y (antibody), the FcγRIIIa Fold in assay [2] worked out at 0.98 fold. On the same count and under the same terms, to trastuzumab T335D (antibody) belongs 2.79 fold. The substance trastuzumab T335R (antibody) registered a FcγRIIIa Fold in assay [2] of 2.58 fold. Still for that read-out and setting: to trastuzumab T335Y (antibody) belongs 1.56 fold; to trastuzumab V240I/V266I (antibody), 1.72 fold; to trastuzumab V273I (antibody), 0.79 fold. On the same count and under the same terms, then trastuzumab V302I (antibody), with 1.01 fold; and trastuzumab V323I (antibody), with 0.83 fold; and trastuzumab Y278E (antibody), with 0.9 fold. The same measure, in the same setting: then trastuzumab Y278T (antibody), with 1.87 fold; and trastuzumab Y278W (antibody), with 0.41 fold.

The record behind these values is patent publication US20070003546A1.
